Reference: article PMC3032006
Read-outs that look alike come from different tables or passages of the source.

How the values were obtained:
Experiment in all cases: AUC
[1] = molecular target: myr(+)MACA-W184A/M185A (HIV-1 (pNL4-3 isolate))
[2] = molecular target: myr(+)MACA-W184A/M185A (HIV-1 (pNL4-3 isolate)); remark: listed apart in the source
[3] = molecular target: myristoylated HIV-1 matrix protein, myr(+)MA (HIV-1)
[4] = molecular target: myristoylated HIV-1 matrix protein, myr(+)MA (HIV-1); remark: listed apart in the source
[5] = molecular target: myristoylated HIV-1 matrix protein, myr(+)MA (HIV-1); remark: listed apart in the source
[6] = molecular target: myristoylated HIV-1 matrix-capsid, myr(+)MACA (HIV-1 (pNL4-3 isolate))
[7] = molecular target: myristoylated HIV-1 matrix-capsid, myr(+)MACA (HIV-1 (pNL4-3 isolate)); remark: listed apart in the source
[8] = molecular target: myristoylated HIV-1 matrix-capsid, myr(+)MACA (HIV-1 (pNL4-3 isolate)); remark: listed apart in the source
[9] = molecular target: myristoylated HIV-1 matrix-capsid, myr(+)MACA (HIV-1 (pNL4-3 isolate)); remark: listed apart in the source
[10] = molecular target: unmyristoylated HIV-1 matrix-capsid, myr(−)MACA (HIV-1 (pNL4-3 isolate))
[11] = molecular target: unmyristoylated HIV-1 matrix-capsid, myr(−)MACA (HIV-1 (pNL4-3 isolate)); remark: listed apart in the source
[12] = molecular target: unmyristoylated HIV-1 matrix-capsid, myr(−)MACA (HIV-1 (pNL4-3 isolate)); remark: listed apart in the source

**Q.** For “myr(+)MACA-W184A/M185A (domain or fragment)”, which stoichiometry N [1] is on record?
**A.** 2

**Q.** And the stoichiometry N [2]?
**A.** 2

**Q.** “myristoylated HIV-1 matrix protein, myr(+)MA (natural protein)” was tested. Which stoichiometry N [3] did it give?
**A.** 3

**Q.** And the stoichiometry N [4]?
**A.** 3

**Q.** What about the fraction in the 2.4S (trimer) peak of c(s) [5] of the same substance?
**A.** 30%

**Q.** What about the stoichiometry N [5] of the same substance?
**A.** 3

**Q.** What does the source list for “myristoylated HIV-1 matrix-capsid, myr(+)MACA (domain or fragment)”?
**A.** stoichiometry N [6]: 3; stoichiometry N [7]: 3; stoichiometry N [8]: 3; Ka [9]: 33000 M⁻¹; fraction in the 4.3S (major) peak of c(s) [9]: 70%; stoichiometry N [9]: 2

**Q.** With “unmyristoylated HIV-1 matrix-capsid, myr(−)MACA (domain or fragment)” as the substance, how does the Ka [10] read?
**A.** 110000 M⁻¹

**Q.** What about the stoichiometry N [10] of the same substance?
**A.** 2

**Q.** What about the Ka [11] of the same substance?
**A.** 33000 M⁻¹

**Q.** What about the stoichiometry N [11] of the same substance?
**A.** 2

**Q.** What about the stoichiometry N [12] of the same substance?
**A.** 2
